Data set [1] deals with the molecule itself. Briefly: right angle light scattering at 350 nm.
Data set [2] deals with the molecule itself. Briefly: right angle light scattering at 350 nm; full-length SaFtsZf (49 µM) or EcFtsZ (25 µM), 1 mM GTP with or without BeF3-, 10 mM MgCl2; MES assembly buffer, 25 °C.

The text below walks through data of publication doi:10.1101/2021.11.29.470395 (bioRxiv, 2021).

B1: full-length FtsZ from methicillin-resistant S. aureus Mu50/ATCC 700699 (natural protein)
chain: MLEFEQGFNHLATLKVIGVGGGGNNAVNRMIDHGMNNVEFIAINTDGQALNLSKAESKIQIGEKLTRGLGAGANPEIGKKAAEESREQIEDAIQGADMVFVTSGMGGGTGTGAAPVVAKIAKEMGALTVGVVTRPFSFEGRKRQTQAAAGVEAMKAAVDTLIVIPNDRLLDIVDKSTPMMEAFKEADNVLRQGVQGISDLIAVSGEVNLDFADVKTIMSNQGSALMGIGVSSGENRAVEAAKKAISSPLLETSIVGAQGVLMNITGGESLSLFEAQEAADIVQDAADEDVNMIFGTVINPELQDEIVVTVIATGFDDKPTSHGRKSGSTGFGTSVNTSSNATSKDESFTSNSSNAQATDSVSERTHTTKEDDIPSFIRNREERRSRRTRR
Consider B1, for which the binding result in data set [1] is listed as “binds”.

B2: full-length FtsZ from E. coli (natural protein, Escherichia coli, UniProt P0A9A6 1-383, looked up)
chain: MFEPMELTNDAVIKVIGVGGGGGNAVEHMVRERIEGVEFFAVNTDAQALRKTAVGQTIQIGSGITKGLGAGANPEVGRNAADEDRDALRAALEGADMVFIAAGMGGGTGTGAAPVVAEVAKDLGILTVAVVTKPFNFEGKKRMAFAEQGITELSKHVDSLITIPNDKLLKVLGRGISLLDAFGAANDVLKGAVQGIAELITRPGLMNVDFADVRTVMSEMGYAMMGSGVASGEDRAEEAAEMAISSPLLEDIDLSGARGVLVNITAGFDLRLDEFETVGNTIRAFASDNATVVIGTSLDPDMNDELRVTVVATGIGMDKRPEITLVTNKQVQQPVMDRYQQHGMAPLTQEQKPVAKVVNDNAPQTAKEPDYLDIPAFLRKQAD
notes: FtsZ of Escherichia coli, full length, wild type protein; also called EcFtsZ; source: purified as described [48]
Consider B2, for which, in data set [2], the binding result was “binds”.
